Where “and” joins values, the source holds several entries; their conditions need not be identical. Equal entries are not always repeated.
target: nylon hydrolase NylCK (wild type, Kocuria), active enzyme: alpha-beta heterodimer (Kocuria); assay: AUC; sedimentation velocity (40,000 rpm) and sedimentation equilibrium (14,000 rpm); each NylC enzyme 0.34 mg ml^-1 in phosphate buffer, 20 °C; self-association of the monomer units

Row | stoichiometry N | Molecule
1 | 4 | nylon hydrolase NylCK (wild type, Kocuria), active enzyme: alpha-beta heterodimer (from UniProt Q79F77 1-266; Q79F77 267-355)

Target: the molecule itself
Assay: crystal structure; sitting-drop vapor diffusion, ammonium sulfate, 0.1 M HEPES pH 7.5, 0.2 M NaCl, 25% glycerol; space group C222_(1), two molecules (A/B dimer) in the asymmetric unit, tetramer by the crystallographic two-fold axis

Row | Molecule | stoichiometry N
2 | nylon hydrolase NylCp2 (wild type, Arthrobacter plasmid pOAD2-encoded NylC), active enzyme: alpha-beta heterodimer (enzyme, NylCp2, alpha subunit (27 kDa) made by autocleavage of the 355-residue precursor between Asn266 and Thr267; NylCp2, beta subunit (9 kDa) made by autocleavage of the 355-residue precursor between Asn266 and Thr267; also called wild-type NylCp2; monomer molecule A-D; source: E. coli JM109, purified (ammonium sulfate fractionation, anion-exchange, gel filtration)) chain 1: MNTTPVHALTDIDGGIAVDPAPRLAGPPVFGGPGNDAFDLAPVRSTGREMLRFDFPGVSIGAAHYEEGPTGATVIHIPAGARTAVDARGGAVGLSGGYDFNHAICLAGGAGYGLEAGAGVSDALLERLEHRTGFAELQLVSSAVIYDFSARSTAVYPDKALGRAALEFAVPGEFPQGRAGAGMSASAGKVDWDRTEITGQGAAFRRLGDVRILAVVVPNPVGVIVDRAGTVVRGNYDAQTGVRRHPVFDYQEAFAEQVPPVTEAGN chain 2: TTISAIVTNVRMSPVELNQFAKQVHSSMHRGIQPFHTDMDGDTLFAVTTDEIDLPTTPGSSRGRLSVNATALGAIASEVMWDAVLEAGK | 4
3 | NylCp2-G^122 mutant enzyme (D122G), alpha-beta heterodimer (enzyme, Arthrobacter, NylCp2 alpha subunit with D122G; NylCp2 beta subunit; also called Gly122 enzyme; source: E. coli JM109, purified (ammonium sulfate fractionation, anion-exchange, gel filtration)) chain 1: MNTTPVHALTDIDGGIAVDPAPRLAGPPVFGGPGNDAFDLAPVRSTGREMLRFDFPGVSIGAAHYEEGPTGATVIHIPAGARTAVDARGGAVGLSGGYDFNHAICLAGGAGYGLEAGAGVSGALLERLEHRTGFAELQLVSSAVIYDFSARSTAVYPDKALGRAALEFAVPGEFPQGRAGAGMSASAGKVDWDRTEITGQGAAFRRLGDVRILAVVVPNPVGVIVDRAGTVVRGNYDAQTGVRRHPVFDYQEAFAEQVPPVTEAGN chain 2: TTISAIVTNVRMSPVELNQFAKQVHSSMHRGIQPFHTDMDGDTLFAVTTDEIDLPTTPGSSRGRLSVNATALGAIASEVMWDAVLEAGK | 4
4 | NylCp2-R^122 mutant enzyme (D122R), alpha-beta heterodimer (enzyme, Arthrobacter, NylCp2 alpha subunit with D122R; NylCp2 beta subunit; source: E. coli JM109, purified (ammonium sulfate fractionation, anion-exchange, gel filtration)) chain 1: MNTTPVHALTDIDGGIAVDPAPRLAGPPVFGGPGNDAFDLAPVRSTGREMLRFDFPGVSIGAAHYEEGPTGATVIHIPAGARTAVDARGGAVGLSGGYDFNHAICLAGGAGYGLEAGAGVSRALLERLEHRTGFAELQLVSSAVIYDFSARSTAVYPDKALGRAALEFAVPGEFPQGRAGAGMSASAGKVDWDRTEITGQGAAFRRLGDVRILAVVVPNPVGVIVDRAGTVVRGNYDAQTGVRRHPVFDYQEAFAEQVPPVTEAGN chain 2: TTISAIVTNVRMSPVELNQFAKQVHSSMHRGIQPFHTDMDGDTLFAVTTDEIDLPTTPGSSRGRLSVNATALGAIASEVMWDAVLEAGK | 4
5 | NylCp2-K^122 mutant enzyme (D122K), alpha-beta heterodimer (enzyme, Arthrobacter, NylCp2 alpha subunit with D122K; NylCp2 beta subunit; source: E. coli JM109, purified (ammonium sulfate fractionation, anion-exchange, gel filtration)) chain 1: MNTTPVHALTDIDGGIAVDPAPRLAGPPVFGGPGNDAFDLAPVRSTGREMLRFDFPGVSIGAAHYEEGPTGATVIHIPAGARTAVDARGGAVGLSGGYDFNHAICLAGGAGYGLEAGAGVSKALLERLEHRTGFAELQLVSSAVIYDFSARSTAVYPDKALGRAALEFAVPGEFPQGRAGAGMSASAGKVDWDRTEITGQGAAFRRLGDVRILAVVVPNPVGVIVDRAGTVVRGNYDAQTGVRRHPVFDYQEAFAEQVPPVTEAGN chain 2: TTISAIVTNVRMSPVELNQFAKQVHSSMHRGIQPFHTDMDGDTLFAVTTDEIDLPTTPGSSRGRLSVNATALGAIASEVMWDAVLEAGK | 4
6 | NylCp2-Y^130 mutant enzyme (H130Y), alpha-beta heterodimer (enzyme, Arthrobacter, NylCp2 alpha subunit with H130Y; NylCp2 beta subunit; source: E. coli JM109, purified (ammonium sulfate fractionation, anion-exchange, gel filtration)) chain 1: MNTTPVHALTDIDGGIAVDPAPRLAGPPVFGGPGNDAFDLAPVRSTGREMLRFDFPGVSIGAAHYEEGPTGATVIHIPAGARTAVDARGGAVGLSGGYDFNHAICLAGGAGYGLEAGAGVSDALLERLEYRTGFAELQLVSSAVIYDFSARSTAVYPDKALGRAALEFAVPGEFPQGRAGAGMSASAGKVDWDRTEITGQGAAFRRLGDVRILAVVVPNPVGVIVDRAGTVVRGNYDAQTGVRRHPVFDYQEAFAEQVPPVTEAGN chain 2: TTISAIVTNVRMSPVELNQFAKQVHSSMHRGIQPFHTDMDGDTLFAVTTDEIDLPTTPGSSRGRLSVNATALGAIASEVMWDAVLEAGK | 4
7 | NylCp2-G^122Y^130 mutant enzyme (D122G/H130Y), alpha-beta heterodimer (enzyme, Arthrobacter, NylCp2 alpha subunit with D122G and H130Y; NylCp2 beta subunit; also called NylC-G^122Y^130; source: E. coli JM109, purified (ammonium sulfate fractionation, anion-exchange, gel filtration)) chain 1: MNTTPVHALTDIDGGIAVDPAPRLAGPPVFGGPGNDAFDLAPVRSTGREMLRFDFPGVSIGAAHYEEGPTGATVIHIPAGARTAVDARGGAVGLSGGYDFNHAICLAGGAGYGLEAGAGVSGALLERLEYRTGFAELQLVSSAVIYDFSARSTAVYPDKALGRAALEFAVPGEFPQGRAGAGMSASAGKVDWDRTEITGQGAAFRRLGDVRILAVVVPNPVGVIVDRAGTVVRGNYDAQTGVRRHPVFDYQEAFAEQVPPVTEAGN chain 2: TTISAIVTNVRMSPVELNQFAKQVHSSMHRGIQPFHTDMDGDTLFAVTTDEIDLPTTPGSSRGRLSVNATALGAIASEVMWDAVLEAGK | 4
8 | NylCp2-V^122 mutant enzyme (D122V), alpha-beta heterodimer (enzyme, Arthrobacter, NylCp2 alpha subunit with D122V; NylCp2 beta subunit; source: E. coli JM109, purified (ammonium sulfate fractionation, anion-exchange, gel filtration)) chain 1: MNTTPVHALTDIDGGIAVDPAPRLAGPPVFGGPGNDAFDLAPVRSTGREMLRFDFPGVSIGAAHYEEGPTGATVIHIPAGARTAVDARGGAVGLSGGYDFNHAICLAGGAGYGLEAGAGVSVALLERLEHRTGFAELQLVSSAVIYDFSARSTAVYPDKALGRAALEFAVPGEFPQGRAGAGMSASAGKVDWDRTEITGQGAAFRRLGDVRILAVVVPNPVGVIVDRAGTVVRGNYDAQTGVRRHPVFDYQEAFAEQVPPVTEAGN chain 2: TTISAIVTNVRMSPVELNQFAKQVHSSMHRGIQPFHTDMDGDTLFAVTTDEIDLPTTPGSSRGRLSVNATALGAIASEVMWDAVLEAGK | 4

Target: the molecule itself
Assay: AUC; sedimentation velocity (40,000 rpm) and sedimentation equilibrium (14,000 rpm); each NylC enzyme 0.34 mg ml^-1 in phosphate buffer, 20 °C; self-association of the monomer units

Row | Molecule | stoichiometry N
9 | nylon hydrolase NylCp2 (wild type, Arthrobacter plasmid pOAD2-encoded NylC), active enzyme: alpha-beta heterodimer (enzyme, NylCp2, alpha subunit (27 kDa) made by autocleavage of the 355-residue precursor between Asn266 and Thr267; NylCp2, beta subunit (9 kDa) made by autocleavage of the 355-residue precursor between Asn266 and Thr267; also called wild-type NylCp2; monomer molecule A-D; source: E. coli JM109, purified (ammonium sulfate fractionation, anion-exchange, gel filtration)) chain 1: MNTTPVHALTDIDGGIAVDPAPRLAGPPVFGGPGNDAFDLAPVRSTGREMLRFDFPGVSIGAAHYEEGPTGATVIHIPAGARTAVDARGGAVGLSGGYDFNHAICLAGGAGYGLEAGAGVSDALLERLEHRTGFAELQLVSSAVIYDFSARSTAVYPDKALGRAALEFAVPGEFPQGRAGAGMSASAGKVDWDRTEITGQGAAFRRLGDVRILAVVVPNPVGVIVDRAGTVVRGNYDAQTGVRRHPVFDYQEAFAEQVPPVTEAGN chain 2: TTISAIVTNVRMSPVELNQFAKQVHSSMHRGIQPFHTDMDGDTLFAVTTDEIDLPTTPGSSRGRLSVNATALGAIASEVMWDAVLEAGK | 3 and 2
10 | NylCp2-G^122Y^130A^36Q^263 mutant enzyme (D122G/H130Y/D36A/E263Q), alpha-beta heterodimer (enzyme, Arthrobacter, NylCp2 alpha subunit with four substitutions; NylCp2 beta subunit; also called NylC-G^122Y^130A^36Q^263; source: E. coli JM109, purified (ammonium sulfate fractionation, anion-exchange, gel filtration)) chain 1: MNTTPVHALTDIDGGIAVDPAPRLAGPPVFGGPGNAAFDLAPVRSTGREMLRFDFPGVSIGAAHYEEGPTGATVIHIPAGARTAVDARGGAVGLSGGYDFNHAICLAGGAGYGLEAGAGVSGALLERLEYRTGFAELQLVSSAVIYDFSARSTAVYPDKALGRAALEFAVPGEFPQGRAGAGMSASAGKVDWDRTEITGQGAAFRRLGDVRILAVVVPNPVGVIVDRAGTVVRGNYDAQTGVRRHPVFDYQEAFAEQVPPVTQAGN chain 2: TTISAIVTNVRMSPVELNQFAKQVHSSMHRGIQPFHTDMDGDTLFAVTTDEIDLPTTPGSSRGRLSVNATALGAIASEVMWDAVLEAGK | 4
11 | nylon hydrolase NylCA (wild type, Agromyces), active enzyme: alpha-beta heterodimer (enzyme, NylCA of Agromyces, alpha subunit; NylCA of Agromyces, beta subunit; source: E. coli clone (plasmid pSKRC4), purified to homogeneity as previously reported) chain 1: MNTTPVHALTDIDGGIAVDPAPRLAGPPVFGGPGNDAFDLAPVRSTGREMLRFDFPGVSIGAAHYEEGPTGATVIHIPAGARTAVDARGGAVGLSGGYDFNHAICLAGGASYGLEAGAGVSGALLERLEYRTGFAEAQLVSSAVIYDFSARSTAVYPDKALGRAALEFAVPGEFPQGRAGAGMSASAGKVDWDRTEITGQGAAFRRLGDVRILAVVVPNPVGVIMDRAGTVVRGNYDAQTGVRRHPVFDYQEAFAEQVPPVTEAGN chain 2: TTISAIVTNVRMSPVELNQFAKQVHSSMHRGIQPFHTDMDGDTLFAVTTDEIDLPTTPGSSRGRLSVNATALGAIASEVMWDAVLEAGK | 4
12 | NylCp2-A^137 mutant (L137A), uncleaved precursor (enzyme, Arthrobacter, UniProt Q79F77 1-355, looked up, NylCp2 with L137A, obtained as the uncleaved precursor (36 kDa; 355 residues); source: E. coli JM109, purified (ammonium sulfate fractionation, anion-exchange, gel filtration)) MNTTPVHALTDIDGGIAVDPAPRLAGPPVFGGPGNDAFDLAPVRSTGREMLRFDFPGVSIGAAHYEEGPTGATVIHIPAGARTAVDARGGAVGLSGGYDFNHAICLAGGAGYGLEAGAGVSDALLERLEHRTGFAEAQLVSSAVIYDFSARSTAVYPDKALGRAALEFAVPGEFPQGRAGAGMSASAGKVDWDRTEITGQGAAFRRLGDVRILAVVVPNPVGVIVDRAGTVVRGNYDAQTGVRRHPVFDYQEAFAEQVPPVTEAGNTTISAIVTNVRMSPVELNQFAKQVHSSMHRGIQPFHTDMDGDTLFAVTTDEIDLPTTPGSSRGRLSVNATALGAIASEVMWDAVLEAGK | 2
13 | NylCp2-G^122A^137 mutant (D122G/L137A), mixture of precursor and alpha and beta subunits (enzyme, Arthrobacter, UniProt Q79F77 1-355, looked up, NylCp2 with D122G and L137A; obtained as a mixture of the uncleaved precursor and the alpha (to N266) and beta (from T267) subunits; Written as the one-chain precursor; part of the sample was cleaved at Asn266/Thr267; source: E. coli JM109, purified (ammonium sulfate fractionation, anion-exchange, gel filtration)) MNTTPVHALTDIDGGIAVDPAPRLAGPPVFGGPGNDAFDLAPVRSTGREMLRFDFPGVSIGAAHYEEGPTGATVIHIPAGARTAVDARGGAVGLSGGYDFNHAICLAGGAGYGLEAGAGVSGALLERLEHRTGFAEAQLVSSAVIYDFSARSTAVYPDKALGRAALEFAVPGEFPQGRAGAGMSASAGKVDWDRTEITGQGAAFRRLGDVRILAVVVPNPVGVIVDRAGTVVRGNYDAQTGVRRHPVFDYQEAFAEQVPPVTEAGNTTISAIVTNVRMSPVELNQFAKQVHSSMHRGIQPFHTDMDGDTLFAVTTDEIDLPTTPGSSRGRLSVNATALGAIASEVMWDAVLEAGK | 3

Source: publication PMC6021441, “Structural basis of the correct subunit assembly, aggregation, and intracellular degradation of nylon hydrolase” (Scientific Reports, 2018)
